# Reference: US20200024322A1 (Eli Lilly, published 2020)
# Numbering of substitutions follows the chain as printed. Numbered stars: 1 amine (or outer) side, 2 acyl side, 3 side chain; on linkers, the order of the positions; unused ones are H or OH. Square brackets hold non-standard residues; d marks the D form. Side chains are listed from the residue outwards. Ends that are not written are not given here. * marks the point of attachment. C18 diacid = O=C(O)CCCCCCCCCCCCCCCCC(=O)*; γGlu = O=C(O)[C@H](CCC(=O)[*:2])N[*:1]; AEEA = NCCOCCOCC(=O)O; Aib = CC(C)(N)C(=O)O
# T1: human GIP receptor (human, UniProt P48546 22-466)
# T1 construct: whole, on cells; also called hGIPR; hGIP-R
# T1 sequence (looked up): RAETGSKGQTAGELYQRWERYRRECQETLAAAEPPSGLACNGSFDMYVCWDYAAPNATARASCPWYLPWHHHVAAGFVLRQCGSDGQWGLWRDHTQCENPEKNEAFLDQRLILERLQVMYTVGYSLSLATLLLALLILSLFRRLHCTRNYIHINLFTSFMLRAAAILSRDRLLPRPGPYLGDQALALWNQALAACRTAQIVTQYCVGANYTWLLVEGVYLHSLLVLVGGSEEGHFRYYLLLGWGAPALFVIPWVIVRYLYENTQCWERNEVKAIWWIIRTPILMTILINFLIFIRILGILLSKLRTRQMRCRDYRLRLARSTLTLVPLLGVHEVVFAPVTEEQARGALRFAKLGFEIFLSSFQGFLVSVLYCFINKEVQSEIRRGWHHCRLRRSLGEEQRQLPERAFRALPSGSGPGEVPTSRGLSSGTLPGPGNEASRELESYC
# B1: Example 294 (peptide)
# peptide: Y[Aib]EGTFTSDYSILLDKK([AEEA-AEEA-γGlu-C18 diacid])AQQAFIEYLIEGG-NH2
# modifications: N-terminus assumed
# SMILES: CC[C@H](C)[C@H](NC(=O)[C@H](CC(C)C)NC(=O)[C@H](Cc1ccc(O)cc1)NC(=O)[C@H](CCC(=O)O)NC(=O)[C@@H](NC(=O)[C@H](Cc1ccccc1)NC(=O)[C@H](C)NC(=O)[C@H](CCC(N)=O)NC(=O)[C@H](CCC(N)=O)NC(=O)[C@H](C)NC(=O)[C@H](CCCCNC(=O)COCCOCCNC(=O)COCCOCCNC(=O)CC[C@H](NC(=O)CCCCCCCCCCCCCCCCC(=O)O)C(=O)O)NC(=O)[C@H](CCCCN)NC(=O)[C@H](CC(=O)O)NC(=O)[C@H](CC(C)C)NC(=O)[C@H](CC(C)C)NC(=O)[C@@H](NC(=O)[C@H](CO)NC(=O)[C@H](Cc1ccc(O)cc1)NC(=O)[C@H](CC(=O)O)NC(=O)[C@H](CO)NC(=O)[C@@H](NC(=O)[C@H](Cc1ccccc1)NC(=O)[C@@H](NC(=O)CNC(=O)[C@H](CCC(=O)O)NC(=O)C(C)(C)NC(=O)[C@@H](N)Cc1ccc(O)cc1)[C@@H](C)O)[C@@H](C)O)[C@@H](C)CC)[C@@H](C)CC)C(=O)N[C@@H](CCC(=O)O)C(=O)NCC(=O)NCC(N)=O
# B2: Example 316 (peptide)
# peptide: Y[Aib]EGTFTSDYSILLDKK([AEEA-AEEA-γGlu-C18 diacid])AQ[Aib]AFIEYLIAGGPSSGAPPPS-NH2
# modifications: N-terminus assumed
# SMILES: CC[C@H](C)[C@H](NC(=O)[C@H](CC(C)C)NC(=O)[C@H](Cc1ccc(O)cc1)NC(=O)[C@H](CCC(=O)O)NC(=O)[C@@H](NC(=O)[C@H](Cc1ccccc1)NC(=O)[C@H](C)NC(=O)C(C)(C)NC(=O)[C@H](CCC(N)=O)NC(=O)[C@H](C)NC(=O)[C@H](CCCCNC(=O)COCCOCCNC(=O)COCCOCCNC(=O)CC[C@H](NC(=O)CCCCCCCCCCCCCCCCC(=O)O)C(=O)O)NC(=O)[C@H](CCCCN)NC(=O)[C@H](CC(=O)O)NC(=O)[C@H](CC(C)C)NC(=O)[C@H](CC(C)C)NC(=O)[C@@H](NC(=O)[C@H](CO)NC(=O)[C@H](Cc1ccc(O)cc1)NC(=O)[C@H](CC(=O)O)NC(=O)[C@H](CO)NC(=O)[C@@H](NC(=O)[C@H](Cc1ccccc1)NC(=O)[C@@H](NC(=O)CNC(=O)[C@H](CCC(=O)O)NC(=O)C(C)(C)NC(=O)[C@@H](N)Cc1ccc(O)cc1)[C@@H](C)O)[C@@H](C)O)[C@@H](C)CC)[C@@H](C)CC)C(=O)N[C@@H](C)C(=O)NCC(=O)NCC(=O)N1CCC[C@H]1C(=O)N[C@@H](CO)C(=O)N[C@@H](CO)C(=O)NCC(=O)N[C@@H](C)C(=O)N1CCC[C@H]1C(=O)N1CCC[C@H]1C(=O)N1CCC[C@H]1C(=O)N[C@@H](CO)C(N)=O
# B3: Example 300 (peptide)
# peptide: YXEGTFTSDYSIXLDKKAQXAFIEYLIEGGPSSG
# modifications: Aib2; αMeL13; K17((2-[2-(2-Amino-ethoxy)-ethoxy]-acetyl)2-(γ-Glu)-CO-(CH2)16-CO2H); Aib20; C-terminal NH2
# B4: Example 301 (peptide)
# peptide: B3 peptide with F6X, X13L
# modifications: Aib2; αMeF6; K17((2-[2-(2-Amino-ethoxy)-ethoxy]-acetyl)2-(γ-Glu)-CO-(CH2)16-CO2H); Aib20; C-terminal NH2
# notes: also called GG-650
# B5: Example 302 (peptide)
# peptide: B3 peptide with F6X, X13L
# modifications: Aib2; αMeF(2F)6; K17((2-[2-(2-Amino-ethoxy)-ethoxy]-acetyl)2-(γ-Glu)-CO-(CH2)16-CO2H); Aib20; C-terminal NH2
# B6: Example 307 (peptide)
# peptide: B3 peptide with F6X, X13L, K16E
# modifications: Aib2; αMeF6; K17((2-[2-(2-Amino-ethoxy)-ethoxy]-acetyl)2-(γ-Glu)-CO-(CH2)16-CO2H); Aib20; C-terminal NH2
# B7: Example 308 (peptide)
# peptide: B3 peptide with F6X, X13L, A21E
# modifications: Aib2; αMeF6; K17((2-[2-(2-Amino-ethoxy)-ethoxy]-acetyl)2-(γ-Glu)-CO-(CH2)16-CO2H); Aib20; C-terminal NH2
# B8: Example 309 (peptide)
# peptide: B3 peptide with F6X, X13L, E28A
# modifications: Aib2; αMeF6; K17((2-[2-(2-Amino-ethoxy)-ethoxy]-acetyl)2-(γ-Glu)-CO-(CH2)16-CO2H); Aib20; C-terminal NH2
# B9: Example 310 (peptide)
# peptide: B3 peptide with F6X, X13L, A21E, E28A
# modifications: Aib2; αMeF6; K17((2-[2-(2-Amino-ethoxy)-ethoxy]-acetyl)2-(γ-Glu)-CO-(CH2)16-CO2H); Aib20; C-terminal NH2
# B10: Example 305 (peptide)
# peptide: B3 peptide with E28A
# modifications: Aib2; αMeL13; K17((2-[2-(2-Amino-ethoxy)-ethoxy]-acetyl)2-(γ-Glu)-CO-(CH2)16-CO2H); Aib20; C-terminal NH2
# B11: Example 312 (peptide)
# peptide: B3 peptide with F6X, X13L, A21E
# modifications: Aib2; αMeF(2F)6; K17((2-[2-(2-Amino-ethoxy)-ethoxy]-acetyl)2-(γ-Glu)-CO-(CH2)16-CO2H); Aib20; C-terminal NH2
# B12: Example 303 (peptide)
# peptide: B3 peptide with K16E
# modifications: Aib2; αMeL13; K17((2-[2-(2-Amino-ethoxy)-ethoxy]-acetyl)2-(γ-Glu)-CO-(CH2)16-CO2H); Aib20; C-terminal NH2
# B13: Example 314 (peptide)
# peptide: B3 peptide with F6X, X13L, A21E, E28A
# modifications: Aib2; αMeF(2F)6; K17((2-[2-(2-Amino-ethoxy)-ethoxy]-acetyl)2-(γ-Glu)-CO-(CH2)16-CO2H); Aib20; C-terminal NH2
# B14: Example 311 (peptide)
# peptide: B3 peptide with F6X, X13L, K16E
# modifications: Aib2; αMeF(2F)6; K17((2-[2-(2-Amino-ethoxy)-ethoxy]-acetyl)2-(γ-Glu)-CO-(CH2)16-CO2H); Aib20; C-terminal NH2
# B15: Example 313 (peptide)
# peptide: B3 peptide with F6X, X13L, E28A
# modifications: Aib2; αMeF(2F)6; K17((2-[2-(2-Amino-ethoxy)-ethoxy]-acetyl)2-(γ-Glu)-CO-(CH2)16-CO2H); Aib20; C-terminal NH2
# Biological target: T2, human glucagon receptor (human, UniProt P47871 26-477)
# T2 construct: whole, on cells; also called hGcgR; GcgR
# T2 sequence (P47871 26-477): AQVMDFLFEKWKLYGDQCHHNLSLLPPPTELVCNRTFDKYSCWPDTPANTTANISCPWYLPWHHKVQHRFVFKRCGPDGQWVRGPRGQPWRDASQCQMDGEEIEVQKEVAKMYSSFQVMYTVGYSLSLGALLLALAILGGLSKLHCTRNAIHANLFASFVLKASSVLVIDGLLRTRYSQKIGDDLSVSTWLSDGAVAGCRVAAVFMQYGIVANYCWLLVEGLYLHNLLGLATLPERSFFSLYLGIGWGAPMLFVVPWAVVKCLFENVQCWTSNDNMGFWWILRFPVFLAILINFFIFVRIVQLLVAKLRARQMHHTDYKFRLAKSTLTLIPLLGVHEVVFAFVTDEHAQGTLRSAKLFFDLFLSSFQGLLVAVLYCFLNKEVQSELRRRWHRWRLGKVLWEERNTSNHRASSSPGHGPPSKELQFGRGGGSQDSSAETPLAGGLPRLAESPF
# Assay: [125I]-Gcg competition SPA, hGcgR membranes
row,Binder,Ki [nM]
1,B1,629
2,B2,654
3,B3,251
4,B4,44.4
5,B5,18.5
6,B6,117
7,B7,94.2
8,B8,64.1
9,B9,174
10,B10,352
11,B11,106
12,B12,502
13,B13,116
14,B14,115
15,B15,27.6

# Biological target: T1, human GIP receptor
# Assay: [125I]-GIP competition SPA, hGIPR membranes
row,Binder,Ki [nM]
1,B1,0.205
2,B2,0.0418
3,B3,0.0504
4,B4,0.0273
5,B5,0.0289
6,B6,0.0773
7,B7,0.0288
8,B8,0.0264
9,B9,0.0315
10,B10,0.025
11,B11,0.0348
12,B12,0.058
13,B13,0.027
14,B14,0.0497
15,B15,0.0261

# Biological target: T3, human GLP-1 receptor (human, UniProt P43220 24-463)
# T3 construct: whole, on cells; also called hGLP-1R; hGLP1R
# Assay: [125I]-GLP-1 competition SPA, hGLP-1R membranes
# Method in brief: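 Competition binding in 25 mM HEPES pH 7.4, 2.5 mM CaCl₂, 1 mM MgCl₂, 0.1% bacitracin, 0.003% TWEEN-20, EDTA-free protease inhibitors. IC₅₀ from four-parameter nonlinear fit; Kᵢ given as geometric mean ± SEM, n = independent replicates on different days.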
row,Binder,Ki [nM]
1,B1,2.92
2,B2,0.957
3,B3,2.13
4,B4,0.875
5,B5,0.617
6,B6,5.1
7,B7,1.01
8,B8,1.04
9,B9,1.7
10,B10,0.83
11,B11,1.63
12,B12,3.69
13,B13,0.717
14,B14,11.5
15,B15,0.815
